Experimental data taken from doi:10.1101/2022.03.14.484356 (bioRxiv, 2022).

Target: T1, recombinant RABL3 (human, UniProt Q5HYI8 1-236)
T1 sequence (looked up): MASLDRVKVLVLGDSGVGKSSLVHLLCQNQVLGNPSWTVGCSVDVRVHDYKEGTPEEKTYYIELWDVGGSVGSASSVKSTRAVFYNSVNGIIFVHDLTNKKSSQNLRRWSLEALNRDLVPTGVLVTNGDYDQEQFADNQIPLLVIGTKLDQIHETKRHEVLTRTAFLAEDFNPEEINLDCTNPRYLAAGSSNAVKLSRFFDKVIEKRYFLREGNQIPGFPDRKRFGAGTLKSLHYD
Assay: pull-down

binding result: binds
B1: recombinant GST-RAB11A (natural protein, human, UniProt P62491 1-216, looked up)
chain: MGTRDDEYDYLFKVVLIGDSGVGKSNLLSRFTRNEFNLESKSTIGVEFATRSIQVDGKTIKAQIWDTAGQERYRAITSAYYRGAVGALLVYDIAKHLTYENVERWLKELRDHADSNIVIMLVGNKSDLRHLRAVPTDEARAFAEKNGLSFIETSALDSTNVEAAFQTILTEIYRIVSQKQMSDRRENDMSPSNNVVPIHVPPTTENKPKVQCCQNI
